{"source": "patent US20140050738A1", "about": "(CANCER RESEARCH TECHNOLOGY, published 2014)", "binders": {"B1": {"name": "N-TIMP-3 (other, UniProt P35625 24-144, looked up)", "chain": "CTCSPSHPQDAFCNSDIVIRAKVVGKKLVKEGPFGTLVYTIKQMKMYRGFTKMPHVQYIHTEASESLCGLKLEVNKYQYLLTGRVYDGKMYTGLCNFVERWDQLTLSQRKGLNYRYHLGCN", "notes": "domain: N-terminal fragment; also called amino-terminal domain of TIMP-3"}, "B2": {"name": "D1(A12) FAb (Fab, V domains shown)", "VH": "EVQLVESGGGLVRPGGSLRLSCAASGFTFSSYAMSWVRQAPGKGLEWVSAISGSGGSTYYADSVKGRFTISRDNTKNSLYLQMTSLRADDTAFYYCVKDFGPGYGTGWFDYWGPGTLVTVSA", "VL": "DIQMTQSPSSLSASVGDRVTITCRASQSISSYLNWYQQKPGKAPKLLIHDASSLQSGVPSRFSGSGSGTDFTLTISSLQPEDFATYYCQQSFSIPLTFGGGTKMDIKR", "notes": "Expressed in E. coli periplasm, purified on Protein G; also called monovalent D1(A12) human FAb"}, "B3": {"name": "D1(A12) human IgG1 (antibody, V domains shown)", "VH": "B2 VH", "VL": "B2 VL"}, "B4": {"name": "D1(A12) scFv (scFv, part only; not given: linker and tags, not shown: small tags and cut ends)", "scFv, part": "EVQLVESGGGLVRPGGSLRLSCAASGFTFSSYAMSWVRQAPGKGLEWVSAISGSGGSTYYADSVKGRFTISRDNTKNSLYLQMTSLRADDTAFYYCVKDFGPGYGTGWFDYWGPGTLVTVSASDIQMTQSPSSLSASVGDRVTITCRASQSISSYLNWYQQKPGKAPKLLIHDASSLQSGVPSRFSGSGSGTDFTLTISSLQPEDFATYYCQQSFSIPLTFGGGTKMDIKR"}}, "key": {"[1]": {"molecular_target": "T1, recombinant human TACE ectodomain (Arg215-Arg651) (human, UniProt P78536 215-651)", "T1 sequence (P78536 215-651)": "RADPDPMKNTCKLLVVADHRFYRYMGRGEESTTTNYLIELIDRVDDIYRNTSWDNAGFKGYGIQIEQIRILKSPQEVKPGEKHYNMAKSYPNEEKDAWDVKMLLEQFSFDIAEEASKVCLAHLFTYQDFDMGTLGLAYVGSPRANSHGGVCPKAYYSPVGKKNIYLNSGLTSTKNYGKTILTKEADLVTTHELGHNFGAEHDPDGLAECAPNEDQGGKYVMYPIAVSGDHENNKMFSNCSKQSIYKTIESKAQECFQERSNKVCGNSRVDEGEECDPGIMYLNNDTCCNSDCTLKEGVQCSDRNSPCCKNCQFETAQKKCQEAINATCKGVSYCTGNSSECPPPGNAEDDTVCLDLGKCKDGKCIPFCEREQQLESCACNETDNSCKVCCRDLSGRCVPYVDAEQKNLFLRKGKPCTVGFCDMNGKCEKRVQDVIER", "assay": "cell-based or functional assay"}, "[2]": {"molecular_target": "T1, recombinant human TACE ectodomain …", "assay": "cell-based or functional assay", "remark": "listed apart in the source"}, "[3]": {"molecular_target": "T2, recombinant human TACE catalytic domain (Arg215-Val477-GlySer-His6) (human, UniProt P78536 215-477)", "T2 sequence (P78536 other isoform, or with tags, fused parts or gaps limits assumed)": "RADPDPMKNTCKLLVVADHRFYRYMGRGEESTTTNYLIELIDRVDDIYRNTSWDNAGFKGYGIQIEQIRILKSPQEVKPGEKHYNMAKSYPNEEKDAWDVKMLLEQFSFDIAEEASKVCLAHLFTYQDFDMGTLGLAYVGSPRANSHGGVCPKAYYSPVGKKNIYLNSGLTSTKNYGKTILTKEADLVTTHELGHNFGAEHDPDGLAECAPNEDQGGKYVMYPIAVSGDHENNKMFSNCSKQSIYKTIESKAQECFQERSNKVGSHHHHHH", "assay": "cell-based or functional assay"}, "[4]": {"molecular_target": "cell surface TACE (human, UniProt P78536 215-824)", "sequence (P78536 215-824)": "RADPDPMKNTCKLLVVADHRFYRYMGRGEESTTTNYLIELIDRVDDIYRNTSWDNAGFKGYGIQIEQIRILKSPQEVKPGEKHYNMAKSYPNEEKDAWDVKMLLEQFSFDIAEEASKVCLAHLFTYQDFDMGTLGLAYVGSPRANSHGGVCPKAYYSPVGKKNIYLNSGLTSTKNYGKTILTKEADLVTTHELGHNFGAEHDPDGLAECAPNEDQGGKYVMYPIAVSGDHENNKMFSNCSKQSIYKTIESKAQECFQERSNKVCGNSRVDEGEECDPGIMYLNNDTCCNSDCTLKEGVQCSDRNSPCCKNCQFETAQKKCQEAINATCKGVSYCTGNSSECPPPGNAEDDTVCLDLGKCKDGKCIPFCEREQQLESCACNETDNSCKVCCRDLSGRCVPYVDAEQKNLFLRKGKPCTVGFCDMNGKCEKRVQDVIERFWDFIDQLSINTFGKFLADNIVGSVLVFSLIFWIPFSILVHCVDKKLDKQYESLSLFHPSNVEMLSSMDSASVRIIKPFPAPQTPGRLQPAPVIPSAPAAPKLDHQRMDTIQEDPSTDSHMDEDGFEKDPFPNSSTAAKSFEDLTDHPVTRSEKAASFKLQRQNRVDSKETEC", "assay": "cell-based or functional assay"}, "[5]": {"molecular_target": "T1, recombinant human TACE ectodomain …", "assay": "SPR; ratio of the KD for the isolated catalytic domain to the KD for the ectodomain", "experimental": "(§1) Results represent the mean values of blank-subtracted technical triplicates per concentration variable. All experiments were performed on a Biacore T100 (GE Healthcare) at 37° C. with a flow-rate of […]. Binding constants were calculated using Biacore T100 Evaluation Software (1:1 binding model; Rmax <200 RU; tc >1×10⁸; Chi²<0.5 RU²."}, "[6]": {"molecular_target": "T1, recombinant human TACE ectodomain …", "assay": "SPR (Biacore T100, 37 C); N-TIMP-3 amine-coupled to CM5 chip, titrated TACE injected; 1:1 model", "experimental": "as §1"}, "[7]": {"molecular_target": "T2, recombinant human TACE catalytic domain …", "assay": "SPR (Biacore T100, 37 C); N-TIMP-3 amine-coupled to CM5 chip, titrated TACE injected; 1:1 model", "experimental": "as §1"}, "[8]": {"molecular_target": "T1, recombinant human TACE ectodomain …", "assay": "competition ELISA: immobilised TACE ectodomain pre-incubated with titrated N-TIMP-3, then probed with D1(A12) FAb [panel B]"}, "[9]": {"molecular_target": "T1, recombinant human TACE ectodomain …", "assay": "SPR (Biacore T100, 37 C): N-TIMP-3 amine-coupled to a CM5 chip, TACE ectodomain injected (traces labelled 5 to 50 nM) [panel C, upper right]", "experimental": "as §1"}, "[10]": {"molecular_target": "T2, recombinant human TACE catalytic domain …", "assay": "SPR (Biacore T100, 37 C): N-TIMP-3 amine-coupled to a CM5 chip, TACE catalytic domain injected (traces labelled 0.5 to 5 nM) [panel C, upper left]", "experimental": "as §1"}, "[11]": {"molecular_target": "T2, recombinant human TACE catalytic domain …", "assay": "cell-based or functional assay", "remark": "listed apart in the source"}, "[12]": {"molecular_target": "T1, recombinant human TACE ectodomain …", "assay": "inverted titration ELISA"}, "[13]": {"molecular_target": "T2, recombinant human TACE catalytic domain …", "assay": "inverted titration ELISA"}, "[14]": {"molecular_target": "T1, recombinant human TACE ectodomain …", "assay": "SPR (Biacore T100, 37 C); FAb amine-coupled to CM5 chip, titrated TACE injected; 1:1 model", "experimental": "as §1"}, "[15]": {"molecular_target": "T2, recombinant human TACE catalytic domain …", "assay": "SPR (Biacore T100, 37 C); FAb amine-coupled to CM5 chip, titrated TACE injected; 1:1 model", "experimental": "as §1"}, "[16]": {"molecular_target": "T1, recombinant human TACE ectodomain …", "assay": "inverted titration ELISA; ratio of the EC50 for the catalytic domain to the EC50 for the ectodomain"}, "[17]": {"molecular_target": "T1, recombinant human TACE ectodomain …", "assay": "competition ELISA: 100 nM immobilised TACE ectodomain pre-incubated with titrated D1(A12) FAb, then probed for N-TIMP-3 binding [panel A]"}, "[18]": {"molecular_target": "T1, recombinant human TACE ectodomain …", "assay": "SPR (Biacore T100, 37 C): D1(A12) FAb amine-coupled to a CM5 chip, TACE ectodomain injected (traces labelled 0.25 to 6 nM) [panel C, lower right]", "experimental": "as §1"}, "[19]": {"molecular_target": "T2, recombinant human TACE catalytic domain …", "assay": "SPR (Biacore T100, 37 C): D1(A12) FAb amine-coupled to a CM5 chip, TACE catalytic domain injected (traces labelled 1 to 15 nM) [panel C, lower left]", "experimental": "as §1"}, "[20]": {"molecular_target": "recombinant human TACE catalytic domain (Arg215-Val477-GlySer-His6) (human) (UniProt P78536)", "sequence (P78536 other isoform, or with tags, fused parts or gaps limits assumed)": "as the sequence (P78536 other isoform, or with tags, fused parts or gaps limits assumed) above", "assay": "cell-based or functional assay"}, "[21]": {"molecular_target": "recombinant human TACE ectodomain (Arg215-Arg651) (human) (UniProt P78536)", "sequence (P78536 215-651)": "as the sequence (P78536 215-651) above", "assay": "cell-based or functional assay"}}}
{"binder": "B1", "values": [{"measurement": "IC50, quenched-fluorescent (QF) peptide cleavage assay", "setting": "[1]", "result": 3.2, "unit": "nM"}, {"measurement": "Delta (IC50 ectodomain against IC50 catalytic domain)", "setting": "[2]", "result": 5.2, "unit": "fold"}, {"measurement": "IC50 (nM), QF-peptide assay", "setting": "[2]", "result": 3.1, "unit": "nM"}, {"measurement": "IC50 (nM), QF-peptide assay", "setting": "[3]", "result": 0.6, "unit": "nM"}, {"measurement": "IC50 (nM), PMA-stimulated shedding of Amphiregulin from PC3 cells", "setting": "[4]", "result": 53.3, "unit": "nM"}, {"measurement": "IC50 (nM), PMA-stimulated shedding of HB-EGF-AP from HeLa cells", "setting": "[4]", "result": 47.3, "unit": "nM"}, {"measurement": "IC50 (nM), PMA-stimulated shedding of TGF-α from IGROV-1 cells", "setting": "[4]", "result": 44.5, "unit": "nM"}, {"measurement": "IC50 (nM), PMA-stimulated shedding of TNF-α from TOV21G cells", "setting": "[4]", "result": 48.5, "unit": "nM"}, {"measurement": "IC50 (nM), mean value of the five cell shedding assays", "setting": "[4]", "result": 48.6, "unit": "nM"}, {"measurement": "IC50 (nM), shedding of TNFR1a from IGROV-1 cells", "setting": "[4]", "result": 49.5, "unit": "nM"}, {"measurement": "ΔKD (KD Cat/KD Ecto)", "setting": "[5]", "result": 0.03, "unit": "fold"}, {"measurement": "Kd", "setting": "[6]", "result": 7.22, "unit": "nM"}, {"measurement": "Kd", "setting": "[7]", "result": 0.211, "unit": "nM"}, {"measurement": "IC50 (read off the curve)", "setting": "[8]", "result": "~20", "unit": "nM"}, {"measurement": "koff", "setting": "[9]", "result": "5.2e-05", "unit": "s⁻¹"}, {"measurement": "kon", "setting": "[9]", "result": 7200, "unit": "M⁻¹ s⁻¹"}, {"measurement": "koff", "setting": "[10]", "result": "2.1e-05", "unit": "s⁻¹"}, {"measurement": "kon", "setting": "[10]", "result": 100000, "unit": "M⁻¹ s⁻¹"}]}
{"binder": "B2", "values": [{"measurement": "IC50, cleavage of GST-TNF-α (SDS-PAGE densitometry)", "setting": "[1]", "result": 73.9, "unit": "nM"}, {"measurement": "ΔIC50 = IC50 Ecto:N-TIMP-3 / IC50 Ecto:D1(A12), QF-peptide assay", "setting": "[1]", "result": 5.75, "unit": "fold"}, {"measurement": "IC50, cleavage of GST-TNF-α (SDS-PAGE densitometry)", "setting": "[11]", "result": 125, "unit": "nM"}, {"measurement": "ΔIC50 = IC50 Cat:N-TIMP-3 / IC50 Cat:D1(A12), QF-peptide assay", "setting": "[11]", "result": 1.35, "unit": "fold"}, {"measurement": "EC50", "setting": "[12]", "result": 0.92, "unit": "nM"}, {"measurement": "EC50", "setting": "[13]", "result": 11.1, "unit": "nM"}, {"measurement": "Delta (IC50 ectodomain against IC50 catalytic domain)", "setting": "[2]", "result": 0.8, "unit": "fold"}, {"measurement": "IC50 (nM), QF-peptide assay", "setting": "[2]", "result": 0.45, "unit": "nM"}, {"measurement": "IC50 (nM), QF-peptide assay", "setting": "[3]", "result": 0.54, "unit": "nM"}, {"measurement": "ΔKD (KD Cat/KD Ecto)", "setting": "[5]", "result": 11.3, "unit": "fold"}, {"measurement": "Kd", "setting": "[14]", "result": 0.461, "unit": "nM"}, {"measurement": "Kd", "setting": "[15]", "result": 5.21, "unit": "nM"}, {"measurement": "ΔEC50 (EC50 Cat/EC50 Ecto)", "setting": "[16]", "result": 12.1, "unit": "fold"}, {"measurement": "IC50 (read off the curve)", "setting": "[17]", "result": "~10", "unit": "nM"}, {"measurement": "koff", "setting": "[18]", "result": 0.00024, "unit": "s⁻¹"}, {"measurement": "kon", "setting": "[18]", "result": 530000, "unit": "M⁻¹ s⁻¹"}, {"measurement": "koff", "setting": "[19]", "result": 0.00058, "unit": "s⁻¹"}, {"measurement": "kon", "setting": "[19]", "result": 110000, "unit": "M⁻¹ s⁻¹"}]}
{"binder": "B3", "values": [{"measurement": "Delta (IC50 N-TIMP-3 against IC50 D1(A12) IgG1), Amphiregulin, PC3", "setting": "[4]", "result": 5.7, "unit": "fold"}, {"measurement": "Delta (IC50 N-TIMP-3 against IC50 D1(A12) IgG1), HB-EGF-AP, HeLa", "setting": "[4]", "result": 6, "unit": "fold"}, {"measurement": "Delta (IC50 N-TIMP-3 against IC50 D1(A12) IgG1), TGF-α, IGROV-1", "setting": "[4]", "result": 4.7, "unit": "fold"}, {"measurement": "Delta (IC50 N-TIMP-3 against IC50 D1(A12) IgG1), TNF-α, TOV21G", "setting": "[4]", "result": 4.3, "unit": "fold"}, {"measurement": "Delta (IC50 N-TIMP-3 against IC50 D1(A12) IgG1), TNFR1a, IGROV-1", "setting": "[4]", "result": 4.7, "unit": "fold"}, {"measurement": "Delta, mean value of the five cell shedding assays", "setting": "[4]", "result": 5.1, "unit": "fold"}, {"measurement": "IC50 (nM), PMA-stimulated shedding of Amphiregulin from PC3 cells", "setting": "[4]", "result": 9.3, "unit": "nM"}, {"measurement": "IC50 (nM), PMA-stimulated shedding of HB-EGF-AP from HeLa cells", "setting": "[4]", "result": 7.9, "unit": "nM"}, {"measurement": "IC50 (nM), PMA-stimulated shedding of TGF-α from IGROV-1 cells", "setting": "[4]", "result": 9.4, "unit": "nM"}, {"measurement": "IC50 (nM), PMA-stimulated shedding of TNF-α from TOV21G cells", "setting": "[4]", "result": 11.2, "unit": "nM"}, {"measurement": "IC50 (nM), mean value of the five cell shedding assays", "setting": "[4]", "result": 9.6, "unit": "nM"}, {"measurement": "IC50 (nM), shedding of TNFR1a from IGROV-1 cells", "setting": "[4]", "result": 10.4, "unit": "nM"}]}
{"binder": "B4", "values": [{"measurement": "IC50, solution-phase QF-peptide assay (wild-type scFv)", "setting": "[20]", "result": 2.3, "unit": "nM"}, {"measurement": "IC50, solution-phase QF-peptide assay (wild-type scFv)", "setting": "[21]", "result": 0.89, "unit": "nM"}]}
